Experimental data: US20220331401A1 (Stanford University, published 2022)

Legend:
[1] = target: T1, recombinant human CLCF1 (cardiotrophin-like cytokine factor 1), residues 28-225 (UniProt Q9UBD9 28-225); experiment: ELISA; ±4
T1 chain: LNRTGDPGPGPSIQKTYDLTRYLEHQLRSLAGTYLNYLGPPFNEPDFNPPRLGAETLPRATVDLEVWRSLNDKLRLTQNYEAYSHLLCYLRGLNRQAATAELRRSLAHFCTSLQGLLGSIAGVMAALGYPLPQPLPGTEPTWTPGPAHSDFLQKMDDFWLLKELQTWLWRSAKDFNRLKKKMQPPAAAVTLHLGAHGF

[2] = target: T2, mouse CLCF1 (mouse, UniProt Q9QZM3 28-225); experiment: ELISA; ±7
T2 chain: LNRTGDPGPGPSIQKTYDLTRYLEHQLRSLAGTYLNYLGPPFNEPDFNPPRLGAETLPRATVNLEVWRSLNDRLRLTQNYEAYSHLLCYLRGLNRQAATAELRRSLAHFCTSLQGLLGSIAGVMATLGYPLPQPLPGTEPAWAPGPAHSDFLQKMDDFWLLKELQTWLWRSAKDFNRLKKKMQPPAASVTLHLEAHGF

[3] = target: T3, mouse CLCF1 (mouse, UniProt Q9QZM3 28-225); experiment: microtiter plate-based binding assay
T3 sequence (looked up): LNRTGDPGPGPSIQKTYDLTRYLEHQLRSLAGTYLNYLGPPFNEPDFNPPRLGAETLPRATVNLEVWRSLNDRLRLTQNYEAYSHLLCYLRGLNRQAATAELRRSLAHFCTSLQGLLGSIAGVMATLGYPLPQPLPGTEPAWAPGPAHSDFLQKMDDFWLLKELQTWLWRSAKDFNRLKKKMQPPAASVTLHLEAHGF

[4] = target: T4, recombinantly produced CNTF (ciliary neurotrophic factor) (Homo sapiens (Human), UniProt P26441 1-200); experiment: microtiter plate-based binding assay
T4 sequence: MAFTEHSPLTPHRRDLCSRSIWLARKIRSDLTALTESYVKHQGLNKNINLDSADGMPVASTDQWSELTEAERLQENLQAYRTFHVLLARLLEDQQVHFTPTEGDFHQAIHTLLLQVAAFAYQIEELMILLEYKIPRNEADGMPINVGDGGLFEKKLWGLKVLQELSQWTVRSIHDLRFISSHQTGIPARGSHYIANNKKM

[5] = target: T5, recombinant human CLCF1 (cardiotrophin-like cytokine factor 1), residues 28-225 (human, UniProt Q9UBD9 28-225); experiment: microtiter plate-based assay (capture of the CNTFR construct, detection with anti-CLCF1)
T5 construct: Only one recombinant CLCF1 preparation is described; also called CLCF1-His; not shown: His tag (named CLCF1-His, detected with anti-HIS antibody)
T5 sequence: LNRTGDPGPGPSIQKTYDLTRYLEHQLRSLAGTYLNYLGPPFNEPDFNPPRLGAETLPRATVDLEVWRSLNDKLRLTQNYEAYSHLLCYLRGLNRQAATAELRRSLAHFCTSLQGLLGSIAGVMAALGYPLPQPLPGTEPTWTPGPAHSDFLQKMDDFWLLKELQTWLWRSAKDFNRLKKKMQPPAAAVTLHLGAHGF

[6] = target: T1, recombinant human CLCF1 …; experiment: yeast display flow cytometry; apparent Kd, ±0.006
[7] = target: T1, recombinant human CLCF1 …; experiment: yeast display flow cytometry; apparent Kd, ±0.003
[8] = target: T1, recombinant human CLCF1 …; experiment: yeast display flow cytometry; apparent Kd, ±3
[9] = target: T5, recombinant human CLCF1 …; experiment: yeast display, flow cytometry titration with CLCF1
Text: Directed evolution was used to engineer a soluble CNTFR variant with stronger affinity for CLCF1 and lack of binding to gp130 and LIFR. It was hypothesized that such a molecule would act as an efficient ligand trap and antagonize CLCF1-mediated oncogenic signaling. To develop a high-affinity receptor decoy, DNA encoding the extracellular domain of CNTFR was subjected to random mutagenesis via error-prone PCR. […] The library was screened to enrich for variants with increased CLCF1 binding using flow cytometry. After 3 rounds of screening, T174P and S237F appeared as consensus mutations, with substantial diversity observed at other amino acid positions. To probe additive effects of these mutations, 20 randomly selected distinct clones from the sorted populations were shuffled using the Staggered Extension Process (StEP) method to create a second library. A combination of equilibrium binding and kinetic off-rate screens were used to sort this library to impose increased screening stringency (FIG. 2, panel C). […]
Yeast displaying the CNTFR constructs were incubated with varying concentrations of CLCF1 for 12 h at room temperature to reach equilibrium binding. […] Then samples were washed and analyzed by flow cytometry using BD Accuri flow cytometer. Samples were analyzed on BD Bioscience software, and data were analyzed using FlowJo software (Treestar Inc).

[10] = target: T1, recombinant human CLCF1 …; experiment: ELISA; ±6
[11] = target: T1, recombinant human CLCF1 …; experiment: yeast display flow cytometry; apparent Kd, ±0.07
[12] = target: T1, recombinant human CLCF1 …; experiment: yeast display flow cytometry; apparent Kd, ±0.4
[13] = target: T1, recombinant human CLCF1 …; experiment: yeast display flow cytometry; apparent Kd, ±5
[14] = target: T1, recombinant human CLCF1 …; experiment: yeast display flow cytometry; apparent Kd, ±0.02

B1: soluble eCNTFR fused to an antibody Fc domain (Fc fusion)
chain: QRHSPQEAPHVQYERLGSDVTLPCGTANWDAAVTWRVNGTDLAPDLLNGSQLVLHGLELGHSGLYACFHRDSWHLRHQVLLHVGLPPQEPVLSCRSNTYPKGFYCSWHLPTPTYIPNTFNVTVLHGSKIMVCEKDPALKNRCHIRYMHLFSPIKHNVSISVSNALGHNATAITFDEFTIVKPDPPENVVARPVPSNPRRLEVTWQTPSTWPDPEFFPLKFFLRYRPLILDQWQHVELSDGTAHTIAAAYAGKEYIIQVAAKDNEFGTWSDWSVAAHATPWTEEPRHLTTEAQAAETTTSTTSSLAPPPTTKICDPGELGSRRLEPRGPTIKPCPPCKCPAPNLLGGPSVFIFPPKIKDVLMISLSPIVTCVVVDVSEDDPDVQISWFVNNVEVHTAQTQTHREDYNSTLRVVSALPIQHQDWMSGKEFKCKVNNKDLPAPIERTISKPKGSVRAPQVYVLPPPEEEMTKKQVTLTCMVTDFMPEDIYVEWTNNGKTELNYKNTEPVLDSDGSYFMYSKLRVEKKNWVERNSYSCSVVHEGLHNHHTTKSFSRTPGK
notes: The tie is the identical set of eight mutations plus an Fc domain; also called eCNTFR-Fc
In the case of B1, the Kd [1] is reported as 63 pM, the Kd [2] is reported as 131 pM and the binding result [3] is reported as “binds”. B1: no binding [4]; binds [5].

B2: Variant 3 (T174P, S237F, I287F) (protein)
chain: MAAPVPWACCAVLAAAAAVVYAQRHSPQEAPHVQYERLGSDVTLPCGTANWDAAVTWRVNGTDLAPDLLNGSQLVLHGLELGHSGLYACFHRDSWHLRHQVLLHVGLPPREPVLSCRSNTYPKGFYCSWHLPTPTYIPNTFNVTVLHGSKIMVCEKDPALKNRCHIRYMHLFSPIKYKVSISVSNALGHNATAITFDEFTIVKPDPPENVVARPVPSNPRRLEVTWQTPSTWPDPEFFPLKFFLRYRPLILDQWQHVELSDGTAHTITDAYAGKEYIIQVAAKDNEFGTWSDWSVAAHATPWTEEPRHLTTEAQAAETTTSTTSSLAPPPTTKICDPGELGSGGGPSAPFLVSVPITLALAAAAATASSLLI
B2 gave a Kd [6] of 49 pM.

B3: yeast-displayed CNTFR variant 4 (R110Q, T174P, S237F, I287F) (receptor)
chain: AVVYAQRHSPQEAPHVQYERLGSDVTLPCGTANWDAAVTWRVNGTDLAPDLLNGSQLVLHGLELGHSGLYACFHRDSWHLRHQVLLHVGLPPQEPVLSCRSNTYPKGFYCSWHLPTPTYIPNTFNVTVLHGSKIMVCEKDPALKNRCHIRYMHLFSPIKYKVSISVSNALGHNATAITFDEFTIVKPDPPENVVARPVPSNPRRLEVTWQTPSTWPDPEFFPLKFFLRYRPLILDQWQHVELSDGTAHTITDAYAGKEYIIQVAAKDNEFGTWSDWSVAAHATPWTEEPRHLTTEAQAAETTTSTTSSLAPPPTTKICDPGELGS
notes: not shown: Aga2p fusion partner and linkers of the pCTCON2 yeast display plasmid; c-Myc tag used to detect expression
B3 was tested, and the Kd [7] was 19 pM, the Kd [8] was 19 pM and the Kd [9] was 20 pM.

B4: soluble eCNTFR with a C-terminal hexahistidine tag (receptor)
chain: QRHSPQEAPHVQYERLGSDVTLPCGTANWDAAVTWRVNGTDLAPDLLNGSQLVLHGLELGHSGLYACFHRDSWHLRHQVLLHVGLPPQEPVLSCRSNTYPKGFYCSWHLPTPTYIPNTFNVTVLHGSKIMVCEKDPALKNRCHIRYMHLFSPIKHNVSISVSNALGHNATAITFDEFTIVKPDPPENVVARPVPSNPRRLEVTWQTPSTWPDPEFFPLKFFLRYRPLILDQWQHVELSDGTAHTIAAAYAGKEYIIQVAAKDNEFGTWSDWSVAAHATPWTEEPRHLTTEAQAAETTTSTTSSLAPPPTTKICDPGELGS
notes: also called eCNTFR-His; not shown: C-terminal hexahistidine tag
In the case of B4, the Kd [10] is reported as 75 pM and the binding result [5] is reported as “binds”.

B5: Variant 5 (S237F, I287F) (protein)
chain: MAAPVPWACCAVLAAAAAVVYAQRHSPQEAPHVQYERLGSDVTLPCGTANWDAAVTWRVNGTDLAPDLLNGSQLVLHGLELGHSGLYACFHRDSWHLRHQVLLHVGLPPREPVLSCRSNTYPKGFYCSWHLPTPTYIPNTFNVTVLHGSKIMVCEKDPALKNRCHIRYMHLFSTIKYKVSISVSNALGHNATAITFDEFTIVKPDPPENVVARPVPSNPRRLEVTWQTPSTWPDPEFFPLKFFLRYRPLILDQWQHVELSDGTAHTITDAYAGKEYIIQVAAKDNEFGTWSDWSVAAHATPWTEEPRHLTTEAQAAETTTSTTSSLAPPPTTKICDPGELGSGGGPSAPFLVSVPITLALAAAAATASSLLI
For B5, the Kd [11] was 40 pM.

B6: Variant 1 (S237F) (protein)
chain: MAAPVPWACCAVLAAAAAVVYAQRHSPQEAPHVQYERLGSDVTLPCGTANWDAAVTWRVNGTDLAPDLLNGSQLVLHGLELGHSGLYACFHRDSWHLRHQVLLHVGLPPREPVLSCRSNTYPKGFYCSWHLPTPTYIPNTFNVTVLHGSKIMVCEKDPALKNRCHIRYMHLFSTIKYKVSISVSNALGHNATAITFDEFTIVKPDPPENVVARPVPSNPRRLEVTWQTPSTWPDPEFFPLKFFLRYRPLILDQWQHVELSDGTAHTITDAYAGKEYIIQVAAKDNEIGTWSDWSVAAHATPWTEEPRHLTTEAQAAETTTSTTSSLAPPPTTKICDPGELGSGGGPSAPFLVSVPITLALAAAAATASSLLI
With B6 the Kd [12] was 41000 pM.

B7: Neg sort (R110Q, T174P, Y177H, K178N, S237F, I287F) (protein)
chain: MAAPVPWACCAVLAAAAAVVYAQRHSPQEAPHVQYERLGSDVTLPCGTANWDAAVTWRVNGTDLAPDLLNGSQLVLHGLELGHSGLYACFHRDSWHLRHQVLLHVGLPPQEPVLSCRSNTYPKGFYCSWHLPTPTYIPNTFNVTVLHGSKIMVCEKDPALKNRCHIRYMHLFSPIKHNVSISVSNALGHNATAITFDEFTIVKPDPPENVVARPVPSNPRRLEVTWQTPSTWPDPEFFPLKFFLRYRPLILDQWQHVELSDGTAHTITDAYAGKEYIIQVAAKDNEFGTWSDWSVAAHATPWTEEPRHLTTEAQAAETTTSTTSSLAPPPTTKICDPGELGSGGGPSAPFLVSVPITLALAAAAATASSLLI
For B7, the Kd [13] was 14 pM.

B8: Variant 2 (T174P, S237F) (protein)
chain: MAAPVPWACCAVLAAAAAVVYAQRHSPQEAPHVQYERLGSDVTLPCGTANWDAAVTWRVNGTDLAPDLLNGSQLVLHGLELGHSGLYACFHRDSWHLRHQVLLHVGLPPREPVLSCRSNTYPKGFYCSWHLPTPTYIPNTFNVTVLHGSKIMVCEKDPALKNRCHIRYMHLFSPIKYKVSISVSNALGHNATAITFDEFTIVKPDPPENVVARPVPSNPRRLEVTWQTPSTWPDPEFFPLKFFLRYRPLILDQWQHVELSDGTAHTITDAYAGKEYIIQVAAKDNEIGTWSDWSVAAHATPWTEEPRHLTTEAQAAETTTSTTSSLAPPPTTKICDPGELGSGGGPSAPFLVSVPITLALAAAAATASSLLI
Binder B8 has a Kd [14] of 890 pM.
